Source: PMC6068138, “Identification of a 57S translation complex containing closed-loop factors and the 60S ribosome subunit” (Scientific Reports, 2018)

T1: Flag-PAB1 (poly(A)-binding protein) (Saccharomyces cerevisiae, UniProt P04147 1-577)
T1 construct: bait of the one-step Flag pull down; also called PAB1-Flag; source: S. cerevisiae, expressed from plasmid YC776 (Flag-PAB1 URA3), in cell extract
T1 sequence (looked up): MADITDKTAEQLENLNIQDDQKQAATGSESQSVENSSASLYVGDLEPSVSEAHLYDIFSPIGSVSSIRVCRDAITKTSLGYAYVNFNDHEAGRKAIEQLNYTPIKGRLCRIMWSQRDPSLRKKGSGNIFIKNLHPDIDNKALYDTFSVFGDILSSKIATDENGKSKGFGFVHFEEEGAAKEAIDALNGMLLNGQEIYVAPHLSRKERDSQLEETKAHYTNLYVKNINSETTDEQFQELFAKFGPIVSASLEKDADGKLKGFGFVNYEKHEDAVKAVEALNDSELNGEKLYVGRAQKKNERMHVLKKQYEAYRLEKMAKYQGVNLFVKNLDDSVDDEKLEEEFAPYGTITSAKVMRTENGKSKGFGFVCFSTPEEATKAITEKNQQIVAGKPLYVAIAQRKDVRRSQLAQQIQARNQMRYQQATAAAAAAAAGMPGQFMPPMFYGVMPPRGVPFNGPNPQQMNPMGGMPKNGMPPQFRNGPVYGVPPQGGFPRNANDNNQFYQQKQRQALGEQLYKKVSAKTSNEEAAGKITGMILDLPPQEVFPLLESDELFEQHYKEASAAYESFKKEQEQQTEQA

T2: eIF4E-Flag (mRNA cap binding protein) (Saccharomyces cerevisiae, UniProt P07260 1-213)
T2 construct: bait of the one-step Flag pull down; also called eIF4-Flag; source: S. cerevisiae, expressed from plasmid YC801 (eIF4E-Flag URA3), in cell extract
T2 sequence (looked up): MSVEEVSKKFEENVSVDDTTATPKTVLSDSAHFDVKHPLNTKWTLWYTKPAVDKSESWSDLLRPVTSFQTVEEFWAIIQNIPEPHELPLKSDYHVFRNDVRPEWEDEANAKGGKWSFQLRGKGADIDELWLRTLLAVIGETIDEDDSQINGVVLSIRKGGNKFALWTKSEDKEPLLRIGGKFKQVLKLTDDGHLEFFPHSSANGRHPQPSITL


Key:
Settings in all cases: partners not purified
[1] = biological target: T1, Flag-PAB1 (poly(A)-binding protein); assay: co-IP + AUC; stoichiometric analysis: Flag-PAB1 purified material split and run at the same time by AU-FDS (GFP protein) and AU-A230 (total material); standards STM1-GFP and RPS4B-GFP; values relative to 100 mRNA bound by ribosomes; cells on glucose, 30 °C to 46 °C 1 min, or glucose depleted 10 min and added back 1 min
[2] = biological target: T1, Flag-PAB1 (poly(A)-binding protein); assay: as above; remark: listed apart in the source
[3] = biological target: T2, eIF4E-Flag (mRNA cap binding protein); assay: co-IP + AUC; stoichiometric analysis: eIF4E-Flag purified material split and run at the same time by AU-FDS (GFP protein) and AU-A230 (total material); standards STM1-GFP and RPS4B-GFP; values relative to 100 mRNA bound by ribosomes; cells on glucose
[4] = biological target: T2, eIF4E-Flag (mRNA cap binding protein); assay: co-IP + AUC; one-step Flag pull down of eIF4E-Flag from yeast cell extracts (cycloheximide added before lysis); Flag eluate analysed by AU-FDS for the GFP tagged protein, 20 °C, 15,000 rpm; cells on glucose or glucose depleted 10 min

abundance in the Flag-PAB1 39S complex (30 °C to 46 °C 1 min) [1]	abundance in the Flag-PAB1 39S complex (Glu + − 10 min + 1 min) [1]	abundance in the Flag-PAB1 57S complex (30 °C to 46 °C 1 min) [1]	abundance in the Flag-PAB1 57S complex (Glu + − 10 min +1 min) [1]	abundance in the Flag-PAB1 39S complex (Glc+) [2]	abundance in the Flag-PAB1 57S complex (Glc+) [2]	abundance in the eIF4E-Flag 39S complex (Glc+) [3]	abundance in the eIF4E-Flag 57S complex (Glc+) [3]	fold change of abundance in the 57S complex, glucose depleted against glucose [4]	Binder
7.9 ± 1.7 relative to 100 mRNA	8.8 ± 1.6 relative to 100 mRNA	3 ± 2.2 relative to 100 mRNA	5.3 ± 1.1 relative to 100 mRNA	13 ± 2.3 relative to 100 mRNA	6.4 ± 0.91 relative to 100 mRNA	88 ± 12 relative to 100 mRNA	71 ± 8.6 relative to 100 mRNA		eIF4G1, GFP tagged (natural protein, Saccharomyces cerevisiae, UniProt P39935 1-952, looked up, eIF4G1, Saccharomyces cerevisiae; source: S. cerevisiae strain carrying the GFP fusion, in cell extract) MTDETAHPTQSASKQESAALKQTGDDQQESQQQRGYTNYNNGSNYTQKKPYNSNRPHQQRGGKFGPNRYNNRGNYNGGGSFRGGHMGANSSNVPWTGYYNNYPVYYQPQQMAAAGSAPANPIPVEEKSPVPTKIEITTKSGEHLDLKEQHKAKLQSQERSTVSPQPESKLKETSDSTSTSTPTPTPSTNDSKASSEENISEAEKTRRNFIEQVKLRKAALEKKRKEQLEGSSGNNNIPMKTTPENVEEKGSDKPEVTEKTKPAEEKSAEPEVKQETPAEEGEQGEKGQIKEESTPKVLTFAERLKLKKQQKEREEKTEGKENKEVPVQEETKSAIESAPVPPSEQVKEETEVAETEQSNIDESATTPAIPTKSDEAEAEVEAEAGDAGTKIGLEAEIETTTDETDDGTNTVSHILNVLKDATPIEDVFSFNYPEGIEGPDIKYKKEHVKYTYGPTFLLQFKDKLNVKADAEWVQSTASKIVIPPGMGRGNRSRDSGRFGNNSSRGHDFRNTSVRNMDDRANSRTSSKRRSKRMNDDRRSNRSYTSRRDRERGSYRNEEKREDDKPKEEVAPLVPSANRWVPKFKSKKTEKKLAPDGKTELLDKDEVERKMKSLLNKLTLEMFDAISSEILAIANISVWETNGETLKAVIEQIFLKACDEPHWSSMYAQLCGKVVKELNPDITDETNEGKTGPKLVLHYLVARCHAEFDKGWTDKLPTNEDGTPLEPEMMSEEYYAAASAKRRGLGLVRFIGFLYRLNLLTGKMMFECFRRLMKDLTDSPSEETLESVVELLNTVGEQFETDSFRTGQATLEGSQLLDSLFGILDNIIQTAKISSRIKFKLIDIKELRHDKNWNSDKKDNGPKTIQQIHEEEERQRQLKNNSRSNSRRTNNSSNRHSFRRDAPPASKDSFITTRTYSQRNSQRAPPPKEEPAAPTSTATNMFSALMGESDDEE
12 ± 8.1 relative to 100 mRNA	5.3 ± 2.7 relative to 100 mRNA	3.8 ± 2.3 relative to 100 mRNA	3.2 ± 0.45 relative to 100 mRNA	8.3 ± 3.4 relative to 100 mRNA	3.5 ± 1.4 relative to 100 mRNA	29 ± 5.4 relative to 100 mRNA	32 ± 11 relative to 100 mRNA		eIF4G2-GFP (natural protein, Saccharomyces cerevisiae, UniProt P39936 1-914, looked up, eIF4G2, Saccharomyces cerevisiae; also called TIF4632-GFP; source: S. cerevisiae strain RP2384 (TIF4632-GFP::G418), in cell extract) MTDQRGPPPPHPQQANGYKKFPPHDNQYSGANNSQPNNHYNENLYSAREPHNNKQYQSKNGKYGTNKYNNRNNSQGNAQYYNNRFNNGYRLNNNDYNPAMLPGMQWPANYYAPQMYYIPQQMVPVASPPYTHQPLNTNPEPPSTPKTTKIEITTKTGERLNLKKFHEEKKASKGEEKNDGVEQKSKSGTPFEKEATPVLPANEAVKDTLTETSNEKSTSEAENTKRLFLEQVRLRKAAMERKKNGLISETEKKQETSNHDNTDTTKPNSVIESEPIKEAPKPTGEANEVVIDGKSGASVKTPQHVTGSVTKSVTFNEPENESSSQDVDELVKDDDTTEISDTTGGKTVNKSDDETINSVITTEENTVKETEPSTSDIEMPTVSQLLETLGKAQPISDIYEFAYPENVERPDIKYKKPSVKYTYGPTFLLQFKDKLKFRPDPAWVEAVSSKIVIPPHIARNKPKDSGRFGGDFRSPSMRGMDHTSSSRVSSKRRSKRMGDDRRSNRGYTSRKDREKAAEKAEEQAPKEEIAPLVPSANRWIPKSRVKKTEKKLAPDGKTELFDKEEVERKMKSLLNKLTLEMFDSISSEILDIANQSKWEDDGETLKIVIEQIFHKACDEPHWSSMYAQLCGKVVKDLDPNIKDKENEGKNGPKLVLHYLVARCHEEFEKGWADKLPAGEDGNPLEPEMMSDEYYIAAAAKRRGLGLVRFIGYLYCLNLLTGKMMFECFRRLMKDLNNDPSEETLESVIELLNTVGEQFEHDKFVTPQATLEGSVLLDNLFMLLQHIIDGGTISNRIKFKLIDVKELREIKHWNSAKKDAGPKTIQQIHQEEEQLRQKKNSQRSNSRFNNHNQSNSNRYSSNRRNMQNTQRDSFASTKTGSFRNNQRNARKVEEVSQAPRANMFDALMNNDGDSD
								1.8 fold	RPL6B-GFP (natural protein, Saccharomyces cerevisiae, UniProt P05739 1-176, looked up, large ribosomal subunit protein RPL6B, Saccharomyces cerevisiae; part of the 60S ribosomal subunit in the extract; source: S. cerevisiae strain carrying the GFP fusion, in cell extract) MTAQQAPKWYPSEDVAAPKKTRKAVRPQKLRASLVPGTVLILLAGRFRGKRVVYLKHLEDNTLLVTGPFKVNGVPLRRVNARYVIATSTKVSVEGVNVEKFNVEYFAKEKLTKKEKKEANLFPEQQTKEIKTERVEDQKVVDKALLAEIKKTPLLKQYLSASFSLKNGDKPHLLKF
